Experimental data taken from US20240059758A1 (CORAT THERAPEUTICS, published 2024).

Legend:
[1] = biological target: SARS-CoV-2 glycoprotein S (SARS-CoV-2, UniProt P0DTC2 14-1273); experiment: cell-based or functional assay
[2] = biological target: T1, receptor binding domain (RBD) of the S1-subunit of SARS-CoV-2 glycoprotein S (SARS-CoV-2, UniProt P0DTC2 319-541); experiment: ACE2:RBD competition, antibody at 5 µg/ml
[3] = biological target: T1, receptor binding domain (RBD) of the …; experiment: ACE2:RBD competition, antibody at 0.5 µg/ml
[4] = biological target: receptor binding domain (RBD) of the S1-subunit of SARS-CoV-2 glycoprotein S (SARS-CoV-2, UniProt P0DTC2 319-541); experiment: RBD-binding quality as compared to STE90-C11, wt
[5] = biological target: SARS-CoV-1 Spike protein (SARS-CoV-1, UniProt P59594 14-667); experiment: titration ELISA
[6] = biological target: T2, MERS-CoV Spike protein (MERS-CoV, UniProt K9N5Q8 18-725); experiment: titration ELISA
T2 sequence: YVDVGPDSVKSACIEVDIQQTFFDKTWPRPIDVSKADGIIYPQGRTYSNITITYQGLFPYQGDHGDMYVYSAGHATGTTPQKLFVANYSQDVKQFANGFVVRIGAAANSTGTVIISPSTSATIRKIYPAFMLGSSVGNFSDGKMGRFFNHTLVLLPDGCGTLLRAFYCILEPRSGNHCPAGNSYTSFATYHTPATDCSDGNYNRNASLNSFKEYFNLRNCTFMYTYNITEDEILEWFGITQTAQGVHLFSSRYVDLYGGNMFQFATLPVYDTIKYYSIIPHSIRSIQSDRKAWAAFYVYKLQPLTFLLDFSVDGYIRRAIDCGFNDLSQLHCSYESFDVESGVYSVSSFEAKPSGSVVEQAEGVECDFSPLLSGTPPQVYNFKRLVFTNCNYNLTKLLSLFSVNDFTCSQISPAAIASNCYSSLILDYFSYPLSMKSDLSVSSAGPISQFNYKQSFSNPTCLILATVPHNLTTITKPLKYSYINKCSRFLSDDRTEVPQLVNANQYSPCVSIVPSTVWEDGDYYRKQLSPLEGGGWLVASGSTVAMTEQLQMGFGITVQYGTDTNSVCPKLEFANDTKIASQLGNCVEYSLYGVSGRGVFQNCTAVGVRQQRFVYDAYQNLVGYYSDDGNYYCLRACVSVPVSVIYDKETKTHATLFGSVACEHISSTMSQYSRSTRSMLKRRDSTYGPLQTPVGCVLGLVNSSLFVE

[7] = biological target: T3, HCov-HKU1 Spike protein (HCoV-HKU1, UniProt Q5MQD0 13-760); experiment: titration ELISA
T3 sequence: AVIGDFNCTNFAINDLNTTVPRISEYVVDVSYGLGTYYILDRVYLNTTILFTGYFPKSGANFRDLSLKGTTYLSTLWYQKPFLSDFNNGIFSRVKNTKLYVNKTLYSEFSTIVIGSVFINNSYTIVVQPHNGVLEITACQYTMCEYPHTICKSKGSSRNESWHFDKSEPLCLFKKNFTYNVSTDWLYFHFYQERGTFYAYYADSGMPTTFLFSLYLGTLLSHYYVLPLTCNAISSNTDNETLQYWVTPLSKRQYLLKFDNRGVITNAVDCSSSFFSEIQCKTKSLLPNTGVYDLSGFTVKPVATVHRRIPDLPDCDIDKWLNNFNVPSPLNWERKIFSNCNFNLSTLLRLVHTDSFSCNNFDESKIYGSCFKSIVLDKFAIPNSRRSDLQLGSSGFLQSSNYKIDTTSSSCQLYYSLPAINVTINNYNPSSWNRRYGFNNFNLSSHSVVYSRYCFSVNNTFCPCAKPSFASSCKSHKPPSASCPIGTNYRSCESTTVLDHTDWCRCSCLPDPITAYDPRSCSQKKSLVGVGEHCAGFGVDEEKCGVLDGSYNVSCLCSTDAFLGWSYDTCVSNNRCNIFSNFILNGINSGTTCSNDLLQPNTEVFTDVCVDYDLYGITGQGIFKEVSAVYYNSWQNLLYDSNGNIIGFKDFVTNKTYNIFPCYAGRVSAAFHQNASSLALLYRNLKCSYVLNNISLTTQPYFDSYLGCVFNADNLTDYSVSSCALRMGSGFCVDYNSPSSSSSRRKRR

[8] = biological target: T4, HCoV-229E Spike protein (HCoV-229E, UniProt P15423 16-560); experiment: titration ELISA
T4 sequence: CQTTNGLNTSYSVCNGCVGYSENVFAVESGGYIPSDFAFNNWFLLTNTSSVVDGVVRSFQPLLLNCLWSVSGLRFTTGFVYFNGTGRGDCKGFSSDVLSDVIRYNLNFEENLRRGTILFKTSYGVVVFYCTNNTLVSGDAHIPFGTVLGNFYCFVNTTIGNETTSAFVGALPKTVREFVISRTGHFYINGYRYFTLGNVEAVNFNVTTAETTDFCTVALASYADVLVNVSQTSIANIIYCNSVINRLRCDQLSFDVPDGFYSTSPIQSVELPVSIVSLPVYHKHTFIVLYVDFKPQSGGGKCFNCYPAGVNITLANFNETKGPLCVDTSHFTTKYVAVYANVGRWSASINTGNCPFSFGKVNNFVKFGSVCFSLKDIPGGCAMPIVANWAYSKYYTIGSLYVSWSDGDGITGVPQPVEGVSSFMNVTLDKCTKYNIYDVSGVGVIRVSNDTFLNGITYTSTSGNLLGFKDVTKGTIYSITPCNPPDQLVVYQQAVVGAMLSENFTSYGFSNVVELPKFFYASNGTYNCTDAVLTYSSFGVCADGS

[9] = biological target: T5, HCoV-NL63 Spike protein (HCoV-NL63, UniProt Q6Q1S2 19-717); experiment: titration ELISA
T5 sequence: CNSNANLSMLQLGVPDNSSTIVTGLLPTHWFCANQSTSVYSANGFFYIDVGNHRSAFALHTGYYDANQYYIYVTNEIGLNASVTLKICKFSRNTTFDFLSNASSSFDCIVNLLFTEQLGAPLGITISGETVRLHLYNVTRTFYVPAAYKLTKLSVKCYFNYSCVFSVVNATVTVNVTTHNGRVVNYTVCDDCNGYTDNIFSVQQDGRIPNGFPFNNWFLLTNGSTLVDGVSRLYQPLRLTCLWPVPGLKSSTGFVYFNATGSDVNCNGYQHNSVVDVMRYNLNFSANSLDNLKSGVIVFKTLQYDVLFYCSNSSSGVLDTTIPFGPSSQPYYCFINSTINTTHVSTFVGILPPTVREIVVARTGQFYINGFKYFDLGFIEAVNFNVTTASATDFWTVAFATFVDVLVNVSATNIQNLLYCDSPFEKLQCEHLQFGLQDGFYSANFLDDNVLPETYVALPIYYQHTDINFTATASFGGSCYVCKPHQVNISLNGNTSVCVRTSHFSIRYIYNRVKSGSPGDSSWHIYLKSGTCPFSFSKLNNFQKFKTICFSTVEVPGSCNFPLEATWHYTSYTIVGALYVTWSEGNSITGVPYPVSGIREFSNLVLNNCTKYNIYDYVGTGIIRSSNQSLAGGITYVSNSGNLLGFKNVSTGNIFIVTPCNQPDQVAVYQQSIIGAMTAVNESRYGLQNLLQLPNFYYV

B1: YU505-A01 (antibody, V domains shown)
VH: QVQLVQSGAEVKKPGASVKVSCKASGYTFTSYYMHWVRQAPGQGLEWMGIINPSGGSTSYAQKFQGRVTMTRDTSTSTVYMELSSLRSEDTAVYYCARDRHYYDSSGSSQATFLFDYWGQGTLVTVSS
VL: QSVLTQPPSVSGAPGQRVTISCTGSSSNIGAGYDVHWYQQLPGTAPKLLIYGNSNRPSGVPDRFSGSKSGTSASLAITGLQAEDEADYYCQSYDSSLNVFGTGTKLTVL
B1 was tested, and the “Confluence Score in VERO E6 cell assay” value [1] was > 99%, the “ACE2 bound to RBD at 5 µg/ml antibody” value [2] was < 30% and the “ACE2 bound to RBD at 0.5 µg/ml antibody” value [3] was < 60%.

B2: YU505-A02 (antibody, V domains shown)
VH: QVQLVESGAEVKKPGSSVKVSCKASGGTFSSYAISWVRQAPGQGLEWMGGIIPIFGTANYAQKFQGRVTITADESTSTAYMELSSLRSEDTAVYYCARQIWAYDSSGYPVPAEYFQHWGQGTLVTVSS
VL: QSVLTQPPSVSGAPGQRVTISCTGSSSNIGAGYDVHWYQQLPGTAPKLLIYGNSNRPSGVPDRFSGSKSGTSASLAITGLQAEDEADYYCQSYDSSLSGVVFGGGTKLTVL
With B2 the “Confluence Score in VERO E6 cell assay” value [1] was > 99%, the “ACE2 bound to RBD at 5 µg/ml antibody” value [2] was < 30% and the “ACE2 bound to RBD at 0.5 µg/ml antibody” value [3] was < 60%.

B3: YU505-E01 (antibody, V domains shown)
VH: QVQLVQSGAEVKKPGSSVKVSCKASGGTFSSYSIVWVRQAPGQGLEWMGGIIPIFGTTNYAQKFQGRVTITADESTSTAFMELSNLKSEDTAVYFCARSLGATRDYWGQGTLVTVSS
VL: SYVLTQPPSVSEAPRQRVTISCSGSSSNIGNNAVNWYQQLPGKAPKLLIYYDDLLPSGVSDRFSGSKSGTSASLAISGLQSEDEADYYCAAWDDSLNGPVFGGGTKVTVL
For B3, the “Confluence Score in VERO E6 cell assay” value [1] was > 98%, the “ACE2 bound to RBD at 5 µg/ml antibody” value [2] was < 25% and the “ACE2 bound to RBD at 0.5 µg/ml antibody” value [3] was < 50%.

B4: YU505-F05 (antibody, V domains shown)
VH: EVQLLESGGGVVQPGRSLRLSCAASGFTFSSYGMHWVRQAPGKGLEWVAVMSYDGSKKYYADSVKGRFTISRDNSKNTLYLQMNSLRAEDTAVYYCVTQGMDVWGQGTLVTVSS
VL: QSVLTQPPSVSVAPGKTARITCGGNNIGSKSVHWYQQKPGQAPVLVIYYISDRPSGIPERFSGSNSGNTATLTISRVEAGDEAAYYCHVWDSSSDHVVFGGGTKLTVL
With B4 the “Confluence Score in VERO E6 cell assay” value [1] was > 95%, the “ACE2 bound to RBD at 5 µg/ml antibody” value [2] was < 30% and the “ACE2 bound to RBD at 0.5 µg/ml antibody” value [3] was < 60%.

B5: hybrid antibody: VL YU537-H11 (SEQ ID No. 402) with VH STE90-C11 (SEQ ID No. 1305) (antibody, V domains shown)
VH: QVQLVESGGGLVQPGGSLRLSCAASGLTVSSNYMSWVRQAPGKGLEWVSVIYSGGSTYYADSVKGRFTISRDDSKNTLYLQMNSLRAEDTAVYYCARDVADAFDIWGQGTMVTVSS
VL: QSVLTQPPSVSAAPGQKVTISCSGSSSNIGNNYVSWYQQLPGTAPKLLIYDTNKRPSGIPDRFSGSKSGTSATLGITGLQTGDEADYYCATWDSSLSVGVFGGGTKLTVL
B5: binds [4].

B6: STE90-C11 (antibody, V domains shown)
VH: QVQLVESGGGLVQPGGSLRLSCAASGLTVSSNYMSWVRQAPGKGLEWVSVIYSGGSTYYADSVKGRFTISRDDSKNTLYLQMNSLRAEDTAVYYCARDVADAFDIWGQGTMVTVSS
VL: DIVMTQSPSFLSASVGDRVTITCRASQGISSYLAWYQQKPGKAPKLLIYAASTLQSGVPSRFSGSGSGTEFTLTISSLQPEDFATYYCQQLNSYPPFTFGPGTKVDIK
B6: no binding [5]; no binding [6]; no binding [7]. B6: no binding [8]; no binding [9].

B7: YU505-A02 (antibody, V domains shown)
VH: QVQLVESGAEVKKPGSSVKVSCKASGGTFSSYAISWVRQAPGQGLEWMGGIIPIFGTANYAQKFQGRVTITADESTSTAYMELSSLRSEDTAVYYCARQIWAYDSSGYPVPAEYFQHWGQGTLVTVSS
VL: QSVLTQPPSVSGAPGQRVTISCTGSSSNIGAGYDVHWYQQLPGTAPKLLIYGNSNRPSGVPDRFSGSKSGTSASLAITGLQAEDEADYYCQSYDSSLSGVVFGGGTKLTVL
B7: no binding [5]; no binding [6]; no binding [7]. B7: no binding [8]; no binding [9].

B8: YU537-H11 (antibody, V domains shown)
VH: EVQLLESGGGLIQPGGSLRLSCAASGLTVSSNYMSWVRQAPGKGLEWVSVIYSGGSTYYADSVKGRFTISRDNSKNALYLQMNSLRAEDTAVYYCARGESGSPYGMDVWGQGTLVTVSS
VL: QSVLTQPPSVSAAPGQKVTISCSGSSSNIGNNYVSWYQQLPGTAPKLLIYDTNKRPSGIPDRFSGSKSGTSATLGITGLQTGDEADYYCATWDSSLSVGVFGGGTKLTVL
B8: no binding [5]; no binding [6]; no binding [7]. B8: no binding [8]; no binding [9].

B9: YU536-D04 (antibody, V domains shown)
VH: QVQLVQSGGGLVQPGGSLRLSCAASGLTVSSNYMSWVRQAPGKGLEWVSVIYSGGSTYYADSVKGRFIISRDNSKNTLYLQMNSLRAEDTAVYYCARDLVVMGLDVWGKGTLVTVSS
VL: DIQLTQSPSSLSASVGDRVTITCRASQGISSYLAWYQQKPGKAPKLLIYAASTLQSGVPSRFSGSGSGTDFTLTISSLQPEDFATYYCQQLNSYPITFGQGTKLEIK
B9: no binding [5]; no binding [6]; no binding [7]. B9: no binding [8]; no binding [9].
